We go through two sequences from patent US20140072613A1, “Compositions and Methods for Treating Cutaneous Scarring” (priority 2012, published 2014).

Common to all, as to assay: biochemical
Holding throughout (format): biochemical

For experiment [1], the target named is 266 human kinases (Homo sapiens, UniProt Q96SB4). The note with it: SRPK1(h); 100 μM. The essentials: (§1)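 A filter-capture radiometric assay: phosphorylated cationic substrate binds an anionic membrane and is scintillation-counted, with values referenced to full-activity control.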
The target in experiment [2] is 266 human kinases (Homo sapiens, UniProt Q8WTQ7). Conditions: GRK7(h); 100 μM. The essentials: as §1
The target of experiment [3] is 266 human kinases (Homo sapiens, UniProt P06239). The note with it: 100 μM. The essentials:
as §1

Experiment [4] deals with 266 human kinases (Homo sapiens, UniProt P43250). Conditions: GRK6(h); 100 μM. The essentials: as §1
Experiment [5] concerns the target 266 human kinases (Homo sapiens, UniProt P07948). The note with it: Lyn(h); 100 μM. The essentials:
as §1

In experiment [6] the target is T1, 266 human kinases (Homo sapiens, UniProt Q9BZL6).
T1 sequence (Q9BZL6 1-878): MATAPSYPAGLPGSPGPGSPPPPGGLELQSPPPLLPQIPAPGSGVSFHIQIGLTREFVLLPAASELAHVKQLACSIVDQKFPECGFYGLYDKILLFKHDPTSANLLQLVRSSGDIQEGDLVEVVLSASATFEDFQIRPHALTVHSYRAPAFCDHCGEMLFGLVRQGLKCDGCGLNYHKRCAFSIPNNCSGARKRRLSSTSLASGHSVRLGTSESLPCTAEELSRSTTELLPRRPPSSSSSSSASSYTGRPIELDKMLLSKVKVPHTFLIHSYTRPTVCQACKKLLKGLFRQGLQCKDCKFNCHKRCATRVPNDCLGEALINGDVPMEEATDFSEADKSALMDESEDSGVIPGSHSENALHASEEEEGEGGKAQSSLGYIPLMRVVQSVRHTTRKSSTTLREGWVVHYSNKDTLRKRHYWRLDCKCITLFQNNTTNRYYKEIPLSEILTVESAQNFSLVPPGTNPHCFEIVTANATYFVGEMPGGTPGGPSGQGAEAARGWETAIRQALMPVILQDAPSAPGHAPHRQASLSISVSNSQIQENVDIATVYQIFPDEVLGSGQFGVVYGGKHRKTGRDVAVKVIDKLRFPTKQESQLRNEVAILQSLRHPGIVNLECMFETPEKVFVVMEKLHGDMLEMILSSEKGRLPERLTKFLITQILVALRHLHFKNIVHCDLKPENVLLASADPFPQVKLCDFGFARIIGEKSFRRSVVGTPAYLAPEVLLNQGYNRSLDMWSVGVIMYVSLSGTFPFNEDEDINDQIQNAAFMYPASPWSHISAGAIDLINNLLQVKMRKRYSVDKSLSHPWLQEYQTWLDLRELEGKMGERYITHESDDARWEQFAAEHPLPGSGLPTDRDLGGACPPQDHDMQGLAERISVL
Conditions: PKD2(h); 100 μM. The method, boiled down: as §1

Experiment [7] has as its target 266 human kinases (Homo sapiens, UniProt P53778). The note with it: SAPK3(h); 100 μM. The essentials: as §1
In experiment [8] the target is 266 human kinases (Homo sapiens, UniProt P00519, T315I). The note with it: Abl(T315I)(h); 100 μM. The method, boiled down:
as §1

In experiment [9] the target is 266 human kinases (Homo sapiens, UniProt P07333). Conditions: Fms(h); 100 μM. The method, boiled down:
as §1

Experiment [10] has as its target 266 human kinases (Homo sapiens, UniProt Q04759). Conditions: PKCθ(h); 100 μM. The essentials: as §1
Experiment [11] deals with 266 human kinases (Homo sapiens, UniProt P07949, V804L). The note with it: Ret(V804L)(h); 100 μM. The essentials: as §1
The target in experiment [12] is 266 human kinases (Homo sapiens, UniProt Q05655). The note with it: PKGδ(h); 100 μM. The essentials:
as §1

In experiment [13] the target is 266 human kinases (Homo sapiens, UniProt Q13554). Conditions: CaMKIIβ(h); 100 μM. The essentials: as §1
Experiment [14] concerns the target 266 human kinases (Homo sapiens, UniProt P06241). The note with it: Fyn(h); 100 μM. The method, boiled down: as §1
In experiment [15] the target is 266 human kinases (Homo sapiens, UniProt P08581, M1250T). Conditions: Met(M1268T)(h); 100 μM. The method, boiled down:
as §1

In experiment [16] the target is 266 human kinases (Homo sapiens, UniProt Q9BYT3). The note with it: STK33(h); 100 μM. The essentials: as §1
The target of experiment [17] is T2, 266 human kinases (Homo sapiens, UniProt Q6PHR2).
T2 sequence (Q6PHR2 1-472): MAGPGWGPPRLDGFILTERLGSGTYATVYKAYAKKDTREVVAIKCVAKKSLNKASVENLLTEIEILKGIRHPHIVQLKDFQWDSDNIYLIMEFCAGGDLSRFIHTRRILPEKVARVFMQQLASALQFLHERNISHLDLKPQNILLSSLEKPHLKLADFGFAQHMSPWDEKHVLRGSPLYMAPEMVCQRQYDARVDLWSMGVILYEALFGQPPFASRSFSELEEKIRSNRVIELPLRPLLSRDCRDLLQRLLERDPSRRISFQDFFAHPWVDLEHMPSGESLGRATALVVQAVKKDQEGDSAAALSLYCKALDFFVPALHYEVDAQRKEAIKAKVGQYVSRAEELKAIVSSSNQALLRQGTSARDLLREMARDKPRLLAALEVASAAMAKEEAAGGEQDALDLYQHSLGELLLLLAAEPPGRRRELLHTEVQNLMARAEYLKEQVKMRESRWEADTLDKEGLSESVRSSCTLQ
The note with it: ULK3(h); 100 μM. The essentials: as §1

Experiment [18] addresses 266 human kinases (Homo sapiens, UniProt P00533, L858R). The note with it: EGFR(L858R)(h); 100 μM. The method, boiled down:
as §1

For experiment [19], the target named is 266 human kinases (Homo sapiens, UniProt O60674). The note with it: JAK2(h); 100 μM. The essentials: as §1

Sequence of 266 human kinases (Homo sapiens, UniProt P06239) (P06239 whole entry): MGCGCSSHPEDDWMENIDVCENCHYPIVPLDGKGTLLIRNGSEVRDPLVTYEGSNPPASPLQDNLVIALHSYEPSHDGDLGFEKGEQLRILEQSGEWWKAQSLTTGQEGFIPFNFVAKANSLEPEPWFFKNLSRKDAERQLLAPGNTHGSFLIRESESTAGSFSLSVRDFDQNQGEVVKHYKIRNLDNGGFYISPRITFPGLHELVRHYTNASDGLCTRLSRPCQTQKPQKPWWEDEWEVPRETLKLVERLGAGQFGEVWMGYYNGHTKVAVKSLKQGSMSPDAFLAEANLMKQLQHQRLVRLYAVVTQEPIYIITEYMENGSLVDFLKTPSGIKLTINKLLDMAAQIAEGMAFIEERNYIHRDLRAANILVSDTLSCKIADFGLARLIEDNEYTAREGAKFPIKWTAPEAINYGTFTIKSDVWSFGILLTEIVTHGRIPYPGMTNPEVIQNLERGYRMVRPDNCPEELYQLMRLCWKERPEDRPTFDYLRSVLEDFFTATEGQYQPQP
Sequence of 266 human kinases (Homo sapiens, UniProt P06241) (P06241 whole entry): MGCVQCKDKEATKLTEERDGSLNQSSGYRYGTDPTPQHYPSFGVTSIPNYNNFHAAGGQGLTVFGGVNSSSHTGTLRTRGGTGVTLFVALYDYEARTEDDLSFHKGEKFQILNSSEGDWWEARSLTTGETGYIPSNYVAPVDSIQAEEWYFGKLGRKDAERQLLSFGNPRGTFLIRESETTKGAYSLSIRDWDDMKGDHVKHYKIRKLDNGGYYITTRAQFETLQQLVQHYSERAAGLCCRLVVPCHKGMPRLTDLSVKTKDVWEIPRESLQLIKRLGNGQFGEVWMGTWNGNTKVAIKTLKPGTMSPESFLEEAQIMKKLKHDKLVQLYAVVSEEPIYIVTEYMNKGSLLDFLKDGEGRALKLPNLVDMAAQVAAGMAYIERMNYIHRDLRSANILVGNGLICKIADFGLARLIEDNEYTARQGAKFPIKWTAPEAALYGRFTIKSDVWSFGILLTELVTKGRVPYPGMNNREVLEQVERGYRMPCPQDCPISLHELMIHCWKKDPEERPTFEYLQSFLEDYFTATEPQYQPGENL
Sequence of 266 human kinases (Homo sapiens, UniProt Q13554) (Q13554 whole entry): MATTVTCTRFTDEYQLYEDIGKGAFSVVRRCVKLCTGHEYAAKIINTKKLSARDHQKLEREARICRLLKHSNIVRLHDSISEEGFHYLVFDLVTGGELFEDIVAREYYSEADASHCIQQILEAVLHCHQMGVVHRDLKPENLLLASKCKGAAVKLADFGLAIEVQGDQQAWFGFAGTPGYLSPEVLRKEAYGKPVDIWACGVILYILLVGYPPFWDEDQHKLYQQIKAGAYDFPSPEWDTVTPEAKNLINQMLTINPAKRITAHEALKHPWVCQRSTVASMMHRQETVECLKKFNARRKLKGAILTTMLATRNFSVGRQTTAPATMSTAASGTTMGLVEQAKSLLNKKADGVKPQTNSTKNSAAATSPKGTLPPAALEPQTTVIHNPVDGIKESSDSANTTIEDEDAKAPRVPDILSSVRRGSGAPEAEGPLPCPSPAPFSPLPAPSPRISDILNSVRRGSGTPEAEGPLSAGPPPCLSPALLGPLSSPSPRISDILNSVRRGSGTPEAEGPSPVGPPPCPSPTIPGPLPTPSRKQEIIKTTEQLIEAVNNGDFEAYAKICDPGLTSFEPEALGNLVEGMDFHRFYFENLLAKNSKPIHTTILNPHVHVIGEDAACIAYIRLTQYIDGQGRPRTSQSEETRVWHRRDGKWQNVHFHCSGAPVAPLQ
Sequence of 266 human kinases (Homo sapiens, UniProt P07948) (P07948 whole entry): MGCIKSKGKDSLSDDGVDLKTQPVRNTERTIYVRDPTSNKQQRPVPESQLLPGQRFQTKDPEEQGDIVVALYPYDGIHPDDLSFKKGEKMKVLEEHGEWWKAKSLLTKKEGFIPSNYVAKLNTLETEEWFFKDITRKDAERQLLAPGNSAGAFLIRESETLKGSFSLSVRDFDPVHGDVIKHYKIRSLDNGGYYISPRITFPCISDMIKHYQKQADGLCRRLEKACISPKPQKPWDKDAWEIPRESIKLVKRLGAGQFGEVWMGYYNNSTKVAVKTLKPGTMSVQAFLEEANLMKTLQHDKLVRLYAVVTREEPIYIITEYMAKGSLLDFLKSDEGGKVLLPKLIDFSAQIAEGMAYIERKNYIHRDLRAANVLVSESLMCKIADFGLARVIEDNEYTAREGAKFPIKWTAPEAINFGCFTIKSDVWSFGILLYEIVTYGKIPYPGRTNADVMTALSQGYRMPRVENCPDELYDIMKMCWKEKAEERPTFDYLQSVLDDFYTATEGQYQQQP
Sequence of 266 human kinases (Homo sapiens, UniProt Q05655) (Q05655 whole entry): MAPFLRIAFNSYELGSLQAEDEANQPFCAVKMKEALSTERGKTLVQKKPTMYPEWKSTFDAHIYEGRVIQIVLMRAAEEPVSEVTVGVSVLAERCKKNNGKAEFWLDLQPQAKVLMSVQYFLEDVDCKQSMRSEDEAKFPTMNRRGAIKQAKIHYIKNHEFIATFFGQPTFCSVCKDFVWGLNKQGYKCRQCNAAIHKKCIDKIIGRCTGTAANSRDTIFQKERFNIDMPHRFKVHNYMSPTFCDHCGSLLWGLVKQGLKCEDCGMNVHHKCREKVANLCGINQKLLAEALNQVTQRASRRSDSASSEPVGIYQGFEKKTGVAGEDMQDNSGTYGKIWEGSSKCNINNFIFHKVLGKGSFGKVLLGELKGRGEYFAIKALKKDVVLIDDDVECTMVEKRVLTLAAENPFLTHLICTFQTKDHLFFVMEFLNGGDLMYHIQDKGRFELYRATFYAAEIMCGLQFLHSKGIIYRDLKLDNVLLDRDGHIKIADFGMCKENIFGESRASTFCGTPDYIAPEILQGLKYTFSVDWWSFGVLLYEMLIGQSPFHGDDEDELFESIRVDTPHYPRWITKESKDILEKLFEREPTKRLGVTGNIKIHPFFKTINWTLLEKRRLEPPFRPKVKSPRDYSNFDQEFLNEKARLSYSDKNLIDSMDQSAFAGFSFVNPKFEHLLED
Sequence of 266 human kinases (Homo sapiens, UniProt Q8WTQ7) (Q8WTQ7 whole entry): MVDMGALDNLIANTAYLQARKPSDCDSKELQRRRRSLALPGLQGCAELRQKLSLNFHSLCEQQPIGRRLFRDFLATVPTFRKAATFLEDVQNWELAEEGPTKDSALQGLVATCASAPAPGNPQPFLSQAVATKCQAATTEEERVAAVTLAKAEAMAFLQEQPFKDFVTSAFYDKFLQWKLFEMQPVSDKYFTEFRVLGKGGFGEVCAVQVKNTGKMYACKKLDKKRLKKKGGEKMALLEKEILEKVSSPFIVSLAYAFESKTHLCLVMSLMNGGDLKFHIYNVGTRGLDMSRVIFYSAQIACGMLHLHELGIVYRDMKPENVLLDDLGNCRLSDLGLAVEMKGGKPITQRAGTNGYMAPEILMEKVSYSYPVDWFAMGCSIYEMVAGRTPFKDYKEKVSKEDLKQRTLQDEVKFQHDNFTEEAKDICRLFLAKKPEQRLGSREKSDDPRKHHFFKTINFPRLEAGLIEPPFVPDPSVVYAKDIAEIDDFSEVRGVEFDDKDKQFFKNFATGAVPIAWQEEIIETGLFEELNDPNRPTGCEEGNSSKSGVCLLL
Sequence of 266 human kinases (Homo sapiens, UniProt P53778) (P53778 whole entry): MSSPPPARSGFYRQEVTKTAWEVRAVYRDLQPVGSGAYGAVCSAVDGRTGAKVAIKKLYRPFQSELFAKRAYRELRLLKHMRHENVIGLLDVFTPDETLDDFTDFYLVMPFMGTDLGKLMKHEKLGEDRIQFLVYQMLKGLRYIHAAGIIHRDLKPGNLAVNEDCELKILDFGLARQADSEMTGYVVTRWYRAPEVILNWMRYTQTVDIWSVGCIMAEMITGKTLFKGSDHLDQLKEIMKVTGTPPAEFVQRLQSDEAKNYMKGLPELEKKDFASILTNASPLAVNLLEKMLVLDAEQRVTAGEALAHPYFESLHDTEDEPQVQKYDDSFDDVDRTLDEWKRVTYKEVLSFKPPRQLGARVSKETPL
Sequence of 266 human kinases (Homo sapiens, UniProt P43250) (P43250 whole entry): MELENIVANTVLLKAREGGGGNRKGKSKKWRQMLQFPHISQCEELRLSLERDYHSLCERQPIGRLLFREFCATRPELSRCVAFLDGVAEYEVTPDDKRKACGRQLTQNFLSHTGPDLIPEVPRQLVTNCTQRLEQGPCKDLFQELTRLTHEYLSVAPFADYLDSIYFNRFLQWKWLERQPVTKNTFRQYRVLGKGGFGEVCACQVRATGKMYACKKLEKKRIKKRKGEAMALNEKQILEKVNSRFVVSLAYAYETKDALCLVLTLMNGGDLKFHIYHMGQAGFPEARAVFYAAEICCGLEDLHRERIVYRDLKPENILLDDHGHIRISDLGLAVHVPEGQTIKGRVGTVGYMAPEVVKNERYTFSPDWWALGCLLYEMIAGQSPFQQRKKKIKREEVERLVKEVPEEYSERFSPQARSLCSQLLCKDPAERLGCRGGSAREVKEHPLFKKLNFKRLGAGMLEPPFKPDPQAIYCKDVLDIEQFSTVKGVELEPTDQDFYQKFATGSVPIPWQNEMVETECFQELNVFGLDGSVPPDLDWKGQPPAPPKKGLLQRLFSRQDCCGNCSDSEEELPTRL
Sequence of 266 human kinases (Homo sapiens, UniProt Q9BYT3) (Q9BYT3 whole entry): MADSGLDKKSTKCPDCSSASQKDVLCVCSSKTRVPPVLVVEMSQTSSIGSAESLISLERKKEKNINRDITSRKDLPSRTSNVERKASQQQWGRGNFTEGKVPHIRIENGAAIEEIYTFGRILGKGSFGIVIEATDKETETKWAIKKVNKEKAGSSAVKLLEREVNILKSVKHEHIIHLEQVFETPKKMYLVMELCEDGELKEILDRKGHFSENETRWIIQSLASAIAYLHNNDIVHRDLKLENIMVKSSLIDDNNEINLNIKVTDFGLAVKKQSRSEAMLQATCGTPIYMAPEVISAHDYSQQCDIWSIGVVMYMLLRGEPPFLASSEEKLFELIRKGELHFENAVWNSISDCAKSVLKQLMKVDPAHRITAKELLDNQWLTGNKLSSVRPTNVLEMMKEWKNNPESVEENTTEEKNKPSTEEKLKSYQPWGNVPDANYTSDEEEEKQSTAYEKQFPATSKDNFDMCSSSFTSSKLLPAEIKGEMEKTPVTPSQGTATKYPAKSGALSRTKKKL

In the case of “HRRIKAWLKKIKALARQLGVAA (mammal) [MMI-0500]”, the “% activity” value with 266 human kinases [1] was 80%; with 266 human kinases [2], 93%; with 266 human kinases [3] (Lck(h) activated) it was 76%; with 266 human kinases [3] (Lck(h)), 359%; with 266 human kinases [4], 174%; in the experiment with 266 human kinases [5], 31%. For the same sequence, the “% activity” value with 266 human kinases [6] amounted to 10%; in the experiment with 266 human kinases [7], 24%; in the experiment with 266 human kinases [8], 16%; with 266 human kinases [9], 14%; with 266 human kinases [10], 62%; with 266 human kinases [11], 20%. The “% activity” value turned out to be 61% in the experiment with 266 human kinases [12]; 3% with 266 human kinases [13]; 83% with 266 human kinases [14]; 239% with 266 human kinases [15]; 16% with 266 human kinases [16]; 177% with 266 human kinases [17]. Moreover, the “% activity” value in the experiment with 266 human kinases [18] is recorded as 26%; in the experiment with 266 human kinases [19] it was 49%.

For the sequence “YARAAARQARAKALNRQLGVA (mammal) [MMI-0200]”, the “% activity” value with 266 human kinases [1] is 93%; with 266 human kinases [2], 124%; in the experiment with 266 human kinases [3] (Lck(h) activated) it was 90%; in the experiment with 266 human kinases [4], 132%; in the experiment with 266 human kinases [5] it was 98%; with 266 human kinases [6] it was 78%. The “% activity” value with 266 human kinases [7] turned out to be 97%; in the experiment with 266 human kinases [8], 108%; in the experiment with 266 human kinases [9], 92%; with 266 human kinases [10], 101%; in the experiment with 266 human kinases [11], 100%; in the experiment with 266 human kinases [12] it was 101%. Also, the “% activity” value with 266 human kinases [13] is given as 53%; with 266 human kinases [14], 75%; with 266 human kinases [15], 143%; with 266 human kinases [16], 98%; with 266 human kinases [17], 164%; with 266 human kinases [18] it was 120%. Further, the “% activity” value with 266 human kinases [19] is 131%.
